In patent US20230002466A1 (ELPIS BIOPHARMACEUTICALS, published 2023):

Tests used:
[1] = target: T1, recombinant His-tagged human IL2Rβ (human, UniProt P14784 27-239); assay: SPR (Biacore T200): Fc fusion captured on anti-hFc chip, IL2Rβ-HIS injected in 2-fold dilutions from 100 nM
T1 construct: also called hIL2Rβ; not shown: His tag
T1 sequence (looked up): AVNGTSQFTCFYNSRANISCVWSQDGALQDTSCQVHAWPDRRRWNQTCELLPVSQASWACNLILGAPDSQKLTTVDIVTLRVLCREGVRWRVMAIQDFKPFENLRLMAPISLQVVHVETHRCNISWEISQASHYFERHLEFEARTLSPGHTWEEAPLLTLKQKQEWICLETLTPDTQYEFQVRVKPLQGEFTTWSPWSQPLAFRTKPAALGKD
Experimental: Binding kinetics of monovalent IL2Rβ Fc fusion proteins have been analyzed by SPR technology with Biacore T200. Briefly, anti-hFc antibody was immobilized on flow cell 1 and 2. For each cycle, 1 ug/mL of IL2 Fc fusion protein was captured for 60 seconds at flow rate of 10 ul/min on flow cell 2 in 1×HBSP buffer on anti-hFc immobilized chip. 100 nM IL2Rα-HIS tagged or IL2Rβ-HIS tagged was 2-fold serial diluted and injected onto both reference flow cell 1 and IL2 Fc fusion protein were captured at flow cell 2 for 150 seconds at flow rate of 30 ul/mins. 300 seconds wash was applied after the last injection. The assay was set up with 8 serial diluted concentration points in 96 well format. The kinetics data was analyzed with Biacore T200 evaluation software 3.0. The specific binding response unit was derived from subtraction of binding to reference flow cell 1 from target flow cell 2 (FIGS. 39A-39D).

[2] = target: T2, human IL2Rβ Fc fusion protein (human, UniProt P14784 27-239); assay: ELISA, Fc-tagged receptor coated, anti-HisTag-HRP
T2 construct: also called Recombinant Fc-tagged human IL2Rβ; not shown: Fc
T2 sequence (looked up): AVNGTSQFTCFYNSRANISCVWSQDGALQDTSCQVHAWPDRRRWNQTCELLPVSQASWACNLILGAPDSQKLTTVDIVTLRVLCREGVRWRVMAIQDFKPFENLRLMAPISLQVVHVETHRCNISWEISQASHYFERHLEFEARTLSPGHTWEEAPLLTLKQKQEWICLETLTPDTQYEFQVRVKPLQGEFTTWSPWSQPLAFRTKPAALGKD
Outline: (§1)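 IL2 mutants, diluted from 1000 nM to 0 nM, were incubated 2 h at RT on plates coated overnight at 4 °C with Fc-tagged human IL2Rα (or IL2Rβ). Bound protein detected with anti-HisTag-HRP (1:5000, 1 h) and TMB. Absorbance read at 450 nm after acid stop.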

human IL2Rβ [3] = target: T3, human IL2Rβ (human, UniProt P14784 27-239); assay: SPR, single concentration
T3 construct: also called IL2β; CD122
T3 sequence (looked up): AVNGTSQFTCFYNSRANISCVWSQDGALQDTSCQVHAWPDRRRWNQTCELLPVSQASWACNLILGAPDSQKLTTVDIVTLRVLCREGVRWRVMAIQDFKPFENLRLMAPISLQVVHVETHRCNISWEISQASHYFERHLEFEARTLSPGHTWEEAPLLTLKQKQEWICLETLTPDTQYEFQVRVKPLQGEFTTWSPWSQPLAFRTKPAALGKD

human IL2Rβ [4] = target: T3, human IL2Rβ; assay: SPR, receptor captured on Protein A chip, E. coli-produced IL2
Experimental: (§2) The assay was run with Biacore T200 control software version 2.0. For each cycle, 1 μg/mL of human IL2Rβ or IL2Rα was captured for 60 seconds at flow rate of 10 μL/min on flow cell 2 in 1×HBST buffer on Protein A sensor chip. Two-fold serial diluted HIS tag purified engineered IL2 mutant was injected onto both reference flow cell 1 and IL2Rβ or IL2Rα captured flow cell 2 for 150 seconds at flow rate of 30 μL/min followed by washing for 300 seconds. The flow cells were then regenerated with Glycine pH 2 for 40 seconds at a flow rate of 30 μL/mins. Eight concentration points from 0 to 100 nM were assayed for each IL2Rβ agonist clone 96-well plate format. The kinetics data was analyzed with Biacore T200 evaluation software 3000. The specific binding response unit was derived from subtraction of binding to reference flow cell 1 from target flow cell 2.

human IL2Rα [5] = target: T4, human IL2Rα (human, UniProt P01589 22-213, limits assumed); assay: as above
T4 construct: also called IL2α; CD25
T4 sequence (looked up): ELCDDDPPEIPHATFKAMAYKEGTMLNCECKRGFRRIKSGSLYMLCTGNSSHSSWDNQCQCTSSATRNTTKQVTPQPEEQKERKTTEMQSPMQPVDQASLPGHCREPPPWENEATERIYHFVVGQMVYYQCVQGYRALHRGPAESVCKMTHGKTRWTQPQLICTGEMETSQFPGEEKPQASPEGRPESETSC
Experimental: as §2

human IL2Rα [6] = target: T4, human IL2Rα; assay: SPR, IL2Rα captured on Protein A chip, IL2 at 100 nM
Experimental: The binding kinetics of IL2Rα-reduced binding clones to IL2Rα was assessed utilizing SPR technology with a Biacore T200, software version 2.0. For each cycle, 1 ug/mL of human IL2Rα was captured for 60 seconds at a flow rate of 10 uL/min on flow cell 2 in 1×HBSP buffer on a Protein A sensor chip. 100 nM of each HIS and Flag tag purified IL2 mutant was injected onto both the reference flow cell 1 and IL2Rα captured flow cell 2 for 150 seconds at a flow rate of 30 uL/min followed by washing for 300 seconds. The flow cells were then regenerated with Glycine pH 2.0 for 60 seconds at a flow rate of 30 uL/min. A HBSP+ buffer was included with each sample as a baseline control. The assay was set up in a 96-well format. The kinetics data was analyzed with Biacore T200 evaluation software 3.0. The specific binding response unit was derived from subtraction of binding to reference flow cell 1 from IL2Rα flow cell 2 and subtraction of buffer control. […] Relative response (RU) was determined for each IL2Rα-reduced binding clone (FIG. 4, Table 3).

[7] = target: T5, human IL2Rα Fc fusion protein (human, UniProt P01589 22-213, limits assumed); assay: ELISA, receptor-Fc coated, anti-Flag HRP
T5 construct: also called Recombinant Fc-tagged human IL2Rα; not shown: Fc
T5 sequence (looked up): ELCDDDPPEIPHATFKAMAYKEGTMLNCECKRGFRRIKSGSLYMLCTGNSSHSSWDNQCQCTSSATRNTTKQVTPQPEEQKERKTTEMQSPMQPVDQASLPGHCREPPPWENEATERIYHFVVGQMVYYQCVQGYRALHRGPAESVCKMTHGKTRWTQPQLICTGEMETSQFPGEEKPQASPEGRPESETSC
Outline: (§3)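 Plates coated overnight at 4 C with IL2Rα or IL2Rβ Fc fusion at 2 ug/mL, then blocked. Flag-tagged IL2 mutant dilutions were added in duplicate, and binding was detected with anti-Flag HRP (1:5000) and TMB for 5 min. EC50 was fitted from OD450.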

[8] = target: T2, human IL2Rβ Fc fusion protein; assay: ELISA, receptor-Fc coated, anti-Flag HRP
Outline: as §3

human IL2Rβ [9] = target: T3, human IL2Rβ; assay: SPR, receptor captured on Protein A chip, mammalian-produced IL2
Experimental: as §2

human IL2Rα [10] = target: T4, human IL2Rα; assay: as above
Experimental: as §2

[11] = target: T5, human IL2Rα Fc fusion protein; assay: ELISA, Fc-tagged receptor coated, anti-HisTag-HRP
Outline: as §1

human IL2Rβ [12] = target: T3, human IL2Rβ; assay: SPR, IL2Rβ captured on Protein A chip, steady state affinity fitting
Experimental: (§4) The assay was run with Biacore T200 control software version 2.0. For each cycle, 1 ug/mL of human IL2Rβ was captured for 60 seconds at flow rate of 10 uL/min on flow cell 2 in 1×HBSP buffer on Protein A sensor chip. 100 nM of HIS and Flag tag purified each IL2 mutant was 2-fold serial diluted and injected onto both reference flow cell 1 and IL2Rβ captured flow cell 2 for 150 seconds at flow rate of 30 uL/min followed by washing for 300 seconds. The flow cells were then regenerated with Glycine pH2 for 60 seconds at a flow rate of 30 uL/min. The assay was set up with 8 serial diluted concentration points in 96-well format. The kinetics data was analyzed with Biacore T200 evaluation software 3.0. The specific binding response unit was derived from subtraction of binding to reference flow cell 1 from target flow cell 2 (FIGS. 16A-16F, Table 10).

human IL2Rβ [13] = target: T3, human IL2Rβ; assay: SPR, IL2Rβ captured on Protein A chip
Experimental: as §4

human IL2Rα [14] = target: T4, human IL2Rα; assay: SPR (Biacore T200), human IL2Rα, one trace per clone drawn, concentrations not printed (Example 13)
[15] = target: T5, human IL2Rα Fc fusion protein; assay: ELISA, single point, Fc-tagged human IL2Rα coated, anti-His-HRP; concentration not printed (Example 14)
Experimental: Recombinant Fc-tagged human IL2Rα and IL2Rβ were added in 25 uL of 1×PBS to wells of 384-well plate and incubated overnight at 4° C. to coat the plates. Plates were washed three times with 0.05% Tween20/1×PBS. Plates were blocked with 100 uL of SuperBlock for 1 hr at RT and then washed 3 times with 0.05% Tween20/1×PBS. IL2 mutants were diluted in 0.05% Tween 20/1×PBS from 1000 nM to 0 nM and added to plates for 2 hrs at room temperature. Plates were then washed 6 times with 0.05% Tween20/1×PBS. Anti-HisTag-HRP was diluted 1:5000 in 0.05% Tween20/1×PBS and added to plates for 1 hr at RT. Plates were then washed 6 times with 0.05% Tween 20/1×PBS, and TMB was added to develop blue color. Reactions were stopped with 2N […] and light absorbance at 450 nm was read on a BioTek plate reader.

B1: EP214/EP215 (Fc fusion)
chain: APTSSSTKKTQLQLEHLLLDLQMILNGINNYKNPKLTEMLTFKFYMPKKATELKHLQCLEEELKPLEEVLNLAQSKNFHLTARDAVDNMRVIIQELKGSETTFMCEYADETATIVEFLNRWITFSQSIISTLTESKYGPPCPPCPAPEFEGAPSVFLFPPKPKDTLMISRTPEVTCVVVDVSQEDPEVQFNWYVDGVEVHNAKTKPREEQFQSTYRVVSVLTVLHQDWLNGKEYKCKVSNKGLPSSIEKTISKAKGQPREPQVYTLPPCQEEMTKNQVSLWCLVKGFYPSDIAVEWESNGQPENNYKTTPPVLDSDGSFFLYSALTVDKSRWQEGNVFSCSVMHEALHNHYTQKSLSLSLGK
Fc: ESKYGPPCPPCPAPEFEGAPSVFLFPPKPKDTLMISRTPEVTCVVVDVSQEDPEVQFNWYVDGVEVHNAKTKPREEQFQSTYRVVSVLTVLHQDWLNGKEYKCKVSNKGLPSSIEKTISKAKGQPREPQVCTLPPSQEEMTKNQVSLSCAVKGFYPSDIAVEWESNGQPENNYKTTPPVLDSDGSFKLVSRLTVDKSRWQEGNVFSCSVMHEALHNHYTQKSLSLSLGK
Kd [1]: 5.79 nM
koff [1]: 0.00883 s⁻¹
kon [1]: 1.53e+06 M⁻¹ s⁻¹

B2: EP349 (ligand)
chain: APTSSSTKKTQLQLEHLLLDLQMILNGINNYKNPKLTRMLTAKFYMPKKATELKHLQCLEEELKPLEEVLNLAQSKNFHLTARDAIDNINVIVQELKGSETTFMCEYADETATIVEFLNRWITFSQSIISTLTGSHHHHHH
EC50 [2]: 948 nM
Kd (human IL2Rβ [3]): 2.79 nM

B3: EP003 (ligand)
chain: APTSSSTKKTQLQLEHLLLDLQMILNGINNYKNPKLTRMLTFKFYMPKKATELKHLQCLEEELKPLEEVLNLAQSKNFHLGVTDSISNAIVLARELKGSETTFMCEYADETATIVEFLNRWITFCQSIISTLT
notes: Produced in E. coli or mammalian cells; also called EP03; EP0003; not shown: C-terminal Flag and 6xHis tags
Kd (human IL2Rβ [4]): 0.123 nM
koff (human IL2Rβ [4]): 0.00027 s⁻¹
kon (human IL2Rβ [4]): 2.18e+06 M⁻¹ s⁻¹
relative activity IL2Rβ (KD: fold) against WT IL2 (human IL2Rβ [4]): 35200 fold
Kd (human IL2Rα [5]): 21.4 nM
relative activity IL2Rα (KD: fold) against WT IL2 (human IL2Rα [5]): -2.3 fold
RU (at 100 nM) (human IL2Rα [6]): 40.8 RU
Relevant binding to WT IL2 (%) (human IL2Rα [6]): 28.7%
EC50 [7]: 538 nM
EC50 [8]: 1.8 nM
Kd (human IL2Rβ [9]): 0.145 nM
koff (human IL2Rβ [9]): 0.000376 s⁻¹
kon (human IL2Rβ [9]): 2.59e+06 M⁻¹ s⁻¹
relative activity IL2Rβ (KD: fold) against WT IL2 (human IL2Rβ [9]): 6970 fold
Kd (human IL2Rα [10]): 302 nM
relative activity IL2Rα (KD: fold) against WT IL2 (human IL2Rα [10]): -22.4 fold

B4: EP252 (ligand)
chain: APTSSSTKKTQLQLEHLLLDLQMILNGINNYKNPKLTRMLTFKFYMPKKATELKHLQCLEEELKPLEEVLNLAQSKNFHLTPRDAIDNIRVIVQELKGSETTFMCEYADETATIVEFLNRWITFCQSIISTLT
notes: not shown: His and Flag tags
EC50 [11]: 13.8 nM
EC50 [2]: 24.5 nM
EC50 [7]: 13 nM
EC50 [8]: 2.2 nM
Kd (human IL2Rβ [12]): 9.11 nM

B5: EP258 (ligand)
chain: APTSSSTKKTQLQLEHLLLDLQMILNGINNYKNPKLTRMLTFKFYMPKKATELKHLQCLEEELKPLEEVLNLAQSKNFHLTARDAISNINVIIQELKGSETTFMCEYADETATIVEFLNRWITFCQSIISTLT
notes: not shown: His and Flag tags
EC50 [11]: 9.1 nM
EC50 [2]: 119 nM
EC50 [7]: 2.5 nM
EC50 [8]: 6.5 nM
Kd (human IL2Rβ [13]): 8.81 nM
koff (human IL2Rβ [13]): 0.0301 s⁻¹
kon (human IL2Rβ [13]): 3.42e+06 M⁻¹ s⁻¹

B6: EP340 (ligand)
chain: APTSSSTKKTQLQLEHLLLDLQMILNGINNYKNPLLTDMLTRKFYMPKKATELKHLQCLEEELKPLEEVLNLAQSKNFHLTPRDAIDNIRVIILELKGSETTFMCEYADETATIVEFLNRWITFCQSIISTLT
notes: not shown: His and Flag tags
binding result (human IL2Rα [14]): no binding (tested: not printed)
EC50 [2]: 185 nM
binding result [15]: no binding (tested: not printed)

B7: EP345 (ligand)
chain: APTSSSTKKTQLQLEHLLLDLQMILNGINNYKNPKLTVMLTFKFSMPKKATELKHLQCLEEELKPLEEVLNLAQSKNFHLTARDAIDNINVIVQELKGSETTFMCEYADETATIVEFLNRWITFSQSIISTLTGSHHHHHH
EC50 [2]: 152 nM
Kd (human IL2Rβ [3]): 12.5 nM
